Reference: paper PMC10320583 (Journal of Structural Biology: X, 2023)

T1: E. coli LptAm-GSGGSGSG-AviTag, biotinylated (E. coli, UniProt P0ADV1 28-158, biotin on the AviTag (BirA biotin-protein ligase))
T1 sequence (looked up): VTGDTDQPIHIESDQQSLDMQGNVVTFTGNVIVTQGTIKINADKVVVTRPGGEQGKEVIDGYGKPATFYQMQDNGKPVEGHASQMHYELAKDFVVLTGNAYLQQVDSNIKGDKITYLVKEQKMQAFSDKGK


How the values were obtained:
[1] = target: E. coli LptAm-GSGGSGSG-AviTag, biotinylated (E. coli) (UniProt P0ADV1)
[2] = target: T1, E. coli LptAm-GSGGSGSG-AviTag, …; test: BLI
[3] = target: the molecule itself; test: crystal structure

Row | Molecule | fold improvement of binding over P. maculiventris thanatin [2] [fold] | also measured
1 | Chinavia ubica thanatin (peptide) |  | MIC against E. coli ATCC 25922 [1]: 1.4 µg/mL
2 | Murgantia histrionica thanatin (peptide) |  | MIC against E. coli ATCC 25922 [1]: 1.1 µg/mL
3 | GSKKPVPIIYCNRRTGKCQRI (peptide, UniProt P55788 1-21, looked up) [P. maculiventris thanatin M21I] | ~3 | 
4 | GSKKPVPIIYCNRRTGKCRRM (peptide, UniProt P55788 1-21, looked up) [P. maculiventris thanatin Q19R] | ~3 | 
5 | GSKKPVPIIACNRRTGKCQRM (peptide, UniProt P55788 1-21, looked up) [P. maculiventris thanatin Y10A] | ~3 | 
6 | GSKKPVPIIACNRRTGKCQRI (peptide, UniProt P55788 1-21, looked up) [P. maculiventris thanatin Y10A/M21I] | ~3 | 
7 | E. coli LptAm (truncated monomeric LptA) (domain or fragment, UniProt P0ADV1 28-158, looked up) VTGDTDQPIHIESDQQSLDMQGNVVTFTGNVIVTQGTIKINADKVVVTRPGGEQGKEVIDGYGKPATFYQMQDNGKPVEGHASQMHYELAKDFVVLTGNAYLQQVDSNIKGDKITYLVKEQKMQAFSDKGK |  | stoichiometry N [3]: 2
